# Numbered stars: 1 amine (or outer) side, 2 acyl side, 3 side chain; on linkers, the order of the positions; unused ones are H or OH. Square brackets hold non-standard residues; d marks the D form. Primed or numbered codes have the meaning given here. Side chains are listed from the residue outwards. Ends that are not written are not given here. * marks the point of attachment. Phe(4-CH2NH2) = NCc1ccc(C[C@H](N)C(=O)O)cc1; C18 diacid = O=C(O)CCCCCCCCCCCCCCCCC(=O)*; γGlu = O=C(O)[C@H](CCC(=O)[*:2])N[*:1]; Met(O2) = CS(=O)(=O)CC[C@H](N)C(=O)O; αMeD = C[C@](N)(CC(=O)O)C(=O)O; PEG2′ = not defined here; AEEA = NCCOCCOCC(=O)O; Aib = CC(C)(N)C(=O)O
# B1: TP679 (peptide)
# peptide: H[Aib]QGTFTSDYSKYLDARAAQ[Phe(4-CH2NH2)]([AEEA-AEEA-AEEA-γGlu-C18 diacid])FVQWLLDT-NH2
# modifications: N-terminus assumed
# SMILES: CC(C)C[C@H](NC(=O)[C@H](Cc1ccc(O)cc1)NC(=O)[C@H](CCCCN)NC(=O)[C@H](CO)NC(=O)[C@H](Cc1ccc(O)cc1)NC(=O)[C@H](CC(=O)O)NC(=O)[C@H](CO)NC(=O)[C@@H](NC(=O)[C@H](Cc1ccccc1)NC(=O)[C@@H](NC(=O)CNC(=O)[C@H](CCC(N)=O)NC(=O)C(C)(C)NC(=O)[C@@H](N)Cc1c[nH]cn1)[C@@H](C)O)[C@@H](C)O)C(=O)N[C@@H](CC(=O)O)C(=O)N[C@@H](C)C(=O)N[C@@H](CCCNC(=N)N)C(=O)N[C@@H](C)C(=O)N[C@@H](C)C(=O)N[C@@H](CCC(N)=O)C(=O)N[C@@H](Cc1ccc(CNC(=O)COCCOCCNC(=O)COCCOCCNC(=O)COCCOCCNC(=O)CC[C@H](NC(=O)CCCCCCCCCCCCCCCCC(=O)O)C(=O)O)cc1)C(=O)N[C@@H](Cc1ccccc1)C(=O)N[C@H](C(=O)N[C@@H](CCC(N)=O)C(=O)N[C@@H](Cc1c[nH]c2ccccc12)C(=O)N[C@@H](CC(C)C)C(=O)N[C@@H](CC(C)C)C(=O)N[C@@H](CC(=O)O)C(=O)N[C@H](C(N)=O)[C@@H](C)O)C(C)C
# B2: TP673 (peptide)
# peptide: H[Aib]QGTFTSDYSKYLD[Aib]RAAK([AEEA-AEEA-γGlu-C18 diacid])DFVQWL[Met(O2)]ET-NH2
# modifications: N-terminus assumed
# SMILES: CC(C)C[C@H](NC(=O)[C@H](Cc1c[nH]c2ccccc12)NC(=O)[C@H](CCC(N)=O)NC(=O)[C@@H](NC(=O)[C@H](Cc1ccccc1)NC(=O)[C@H](CC(=O)O)NC(=O)[C@H](CCCCNC(=O)COCCOCCNC(=O)COCCOCCNC(=O)CC[C@H](NC(=O)CCCCCCCCCCCCCCCCC(=O)O)C(=O)O)NC(=O)[C@H](C)NC(=O)[C@H](C)NC(=O)[C@H](CCCNC(=N)N)NC(=O)C(C)(C)NC(=O)[C@H](CC(=O)O)NC(=O)[C@H](CC(C)C)NC(=O)[C@H](Cc1ccc(O)cc1)NC(=O)[C@H](CCCCN)NC(=O)[C@H](CO)NC(=O)[C@H](Cc1ccc(O)cc1)NC(=O)[C@H](CC(=O)O)NC(=O)[C@H](CO)NC(=O)[C@@H](NC(=O)[C@H](Cc1ccccc1)NC(=O)[C@@H](NC(=O)CNC(=O)[C@H](CCC(N)=O)NC(=O)C(C)(C)NC(=O)[C@@H](N)Cc1c[nH]cn1)[C@@H](C)O)[C@@H](C)O)C(C)C)C(=O)N[C@@H](CCS(C)(=O)=O)C(=O)N[C@@H](CCC(=O)O)C(=O)N[C@H](C(N)=O)[C@@H](C)O
# B3: TP677 (peptide)
# peptide: H[Aib]QGTFTSDYSKYLDARAAK([AEEA-AEEA-AEEA-γGlu-C18 diacid])DFVQWL[Met(O2)][αMeD]T-NH2
# modifications: N-terminus assumed
# SMILES: CC(C)C[C@H](NC(=O)[C@H](Cc1ccc(O)cc1)NC(=O)[C@H](CCCCN)NC(=O)[C@H](CO)NC(=O)[C@H](Cc1ccc(O)cc1)NC(=O)[C@H](CC(=O)O)NC(=O)[C@H](CO)NC(=O)[C@@H](NC(=O)[C@H](Cc1ccccc1)NC(=O)[C@@H](NC(=O)CNC(=O)[C@H](CCC(N)=O)NC(=O)C(C)(C)NC(=O)[C@@H](N)Cc1c[nH]cn1)[C@@H](C)O)[C@@H](C)O)C(=O)N[C@@H](CC(=O)O)C(=O)N[C@@H](C)C(=O)N[C@@H](CCCNC(=N)N)C(=O)N[C@@H](C)C(=O)N[C@@H](C)C(=O)N[C@@H](CCCCNC(=O)COCCOCCNC(=O)COCCOCCNC(=O)COCCOCCNC(=O)CC[C@H](NC(=O)CCCCCCCCCCCCCCCCC(=O)O)C(=O)O)C(=O)N[C@@H](CC(=O)O)C(=O)N[C@@H](Cc1ccccc1)C(=O)N[C@H](C(=O)N[C@@H](CCC(N)=O)C(=O)N[C@@H](Cc1c[nH]c2ccccc12)C(=O)N[C@@H](CC(C)C)C(=O)N[C@@H](CCS(C)(=O)=O)C(=O)N[C@@](C)(CC(=O)O)C(=O)N[C@H](C(N)=O)[C@@H](C)O)C(C)C
# B4: TP675 (peptide)
# peptide: H[Aib]QGTFTSDYSKYLD[Aib]RAAQDFVK([AEEA-AEEA-γGlu-C18 diacid])WL[Met(O2)]ET-NH2
# modifications: N-terminus assumed
# SMILES: CC(C)C[C@H](NC(=O)[C@H](Cc1c[nH]c2ccccc12)NC(=O)[C@H](CCCCNC(=O)COCCOCCNC(=O)COCCOCCNC(=O)CC[C@H](NC(=O)CCCCCCCCCCCCCCCCC(=O)O)C(=O)O)NC(=O)[C@@H](NC(=O)[C@H](Cc1ccccc1)NC(=O)[C@H](CC(=O)O)NC(=O)[C@H](CCC(N)=O)NC(=O)[C@H](C)NC(=O)[C@H](C)NC(=O)[C@H](CCCNC(=N)N)NC(=O)C(C)(C)NC(=O)[C@H](CC(=O)O)NC(=O)[C@H](CC(C)C)NC(=O)[C@H](Cc1ccc(O)cc1)NC(=O)[C@H](CCCCN)NC(=O)[C@H](CO)NC(=O)[C@H](Cc1ccc(O)cc1)NC(=O)[C@H](CC(=O)O)NC(=O)[C@H](CO)NC(=O)[C@@H](NC(=O)[C@H](Cc1ccccc1)NC(=O)[C@@H](NC(=O)CNC(=O)[C@H](CCC(N)=O)NC(=O)C(C)(C)NC(=O)[C@@H](N)Cc1c[nH]cn1)[C@@H](C)O)[C@@H](C)O)C(C)C)C(=O)N[C@@H](CCS(C)(=O)=O)C(=O)N[C@@H](CCC(=O)O)C(=O)N[C@H](C(N)=O)[C@@H](C)O
# B5: TP678 (peptide)
# peptide: H[Aib]QGTFTSDYSKYLDARAA[Phe(4-CH2NH2)]([AEEA-AEEA-AEEA-γGlu-C18 diacid])DFVQWLLDT-NH2
# modifications: N-terminus assumed
# SMILES: CC(C)C[C@H](NC(=O)[C@H](Cc1ccc(O)cc1)NC(=O)[C@H](CCCCN)NC(=O)[C@H](CO)NC(=O)[C@H](Cc1ccc(O)cc1)NC(=O)[C@H](CC(=O)O)NC(=O)[C@H](CO)NC(=O)[C@@H](NC(=O)[C@H](Cc1ccccc1)NC(=O)[C@@H](NC(=O)CNC(=O)[C@H](CCC(N)=O)NC(=O)C(C)(C)NC(=O)[C@@H](N)Cc1c[nH]cn1)[C@@H](C)O)[C@@H](C)O)C(=O)N[C@@H](CC(=O)O)C(=O)N[C@@H](C)C(=O)N[C@@H](CCCNC(=N)N)C(=O)N[C@@H](C)C(=O)N[C@@H](C)C(=O)N[C@@H](Cc1ccc(CNC(=O)COCCOCCNC(=O)COCCOCCNC(=O)COCCOCCNC(=O)CC[C@H](NC(=O)CCCCCCCCCCCCCCCCC(=O)O)C(=O)O)cc1)C(=O)N[C@@H](CC(=O)O)C(=O)N[C@@H](Cc1ccccc1)C(=O)N[C@H](C(=O)N[C@@H](CCC(N)=O)C(=O)N[C@@H](Cc1c[nH]c2ccccc12)C(=O)N[C@@H](CC(C)C)C(=O)N[C@@H](CC(C)C)C(=O)N[C@@H](CC(=O)O)C(=O)N[C@H](C(N)=O)[C@@H](C)O)C(C)C
# B6: TP676 (peptide)
# peptide: H[Aib]QGTFTSDYSKYLDARAAK([AEEA-AEEA-AEEA-γGlu-C18 diacid])DFVQWL[Met(O2)]DT-NH2
# modifications: N-terminus assumed
# SMILES: CC(C)C[C@H](NC(=O)[C@H](Cc1ccc(O)cc1)NC(=O)[C@H](CCCCN)NC(=O)[C@H](CO)NC(=O)[C@H](Cc1ccc(O)cc1)NC(=O)[C@H](CC(=O)O)NC(=O)[C@H](CO)NC(=O)[C@@H](NC(=O)[C@H](Cc1ccccc1)NC(=O)[C@@H](NC(=O)CNC(=O)[C@H](CCC(N)=O)NC(=O)C(C)(C)NC(=O)[C@@H](N)Cc1c[nH]cn1)[C@@H](C)O)[C@@H](C)O)C(=O)N[C@@H](CC(=O)O)C(=O)N[C@@H](C)C(=O)N[C@@H](CCCNC(=N)N)C(=O)N[C@@H](C)C(=O)N[C@@H](C)C(=O)N[C@@H](CCCCNC(=O)COCCOCCNC(=O)COCCOCCNC(=O)COCCOCCNC(=O)CC[C@H](NC(=O)CCCCCCCCCCCCCCCCC(=O)O)C(=O)O)C(=O)N[C@@H](CC(=O)O)C(=O)N[C@@H](Cc1ccccc1)C(=O)N[C@H](C(=O)N[C@@H](CCC(N)=O)C(=O)N[C@@H](Cc1c[nH]c2ccccc12)C(=O)N[C@@H](CC(C)C)C(=O)N[C@@H](CCS(C)(=O)=O)C(=O)N[C@@H](CC(=O)O)C(=O)N[C@H](C(N)=O)[C@@H](C)O)C(C)C
# B7: TP674 (peptide)
# peptide: H[Aib]QGTFTSDYSKYLEARAAK([AEEA-AEEA-γGlu-C18 diacid])DFVQWL[Met(O2)]DT-NH2
# modifications: N-terminus assumed
# SMILES: CC(C)C[C@H](NC(=O)[C@H](Cc1ccc(O)cc1)NC(=O)[C@H](CCCCN)NC(=O)[C@H](CO)NC(=O)[C@H](Cc1ccc(O)cc1)NC(=O)[C@H](CC(=O)O)NC(=O)[C@H](CO)NC(=O)[C@@H](NC(=O)[C@H](Cc1ccccc1)NC(=O)[C@@H](NC(=O)CNC(=O)[C@H](CCC(N)=O)NC(=O)C(C)(C)NC(=O)[C@@H](N)Cc1c[nH]cn1)[C@@H](C)O)[C@@H](C)O)C(=O)N[C@@H](CCC(=O)O)C(=O)N[C@@H](C)C(=O)N[C@@H](CCCNC(=N)N)C(=O)N[C@@H](C)C(=O)N[C@@H](C)C(=O)N[C@@H](CCCCNC(=O)COCCOCCNC(=O)COCCOCCNC(=O)CC[C@H](NC(=O)CCCCCCCCCCCCCCCCC(=O)O)C(=O)O)C(=O)N[C@@H](CC(=O)O)C(=O)N[C@@H](Cc1ccccc1)C(=O)N[C@H](C(=O)N[C@@H](CCC(N)=O)C(=O)N[C@@H](Cc1c[nH]c2ccccc12)C(=O)N[C@@H](CC(C)C)C(=O)N[C@@H](CCS(C)(=O)=O)C(=O)N[C@@H](CC(=O)O)C(=O)N[C@H](C(N)=O)[C@@H](C)O)C(C)C
# How the values were obtained:
# [1] = molecular target: human GLP-1 receptor (GLP1R) (human, UniProt P43220 24-463); experiment: cell-based or functional assay
# [2] = molecular target: human Glucagon receptor (GCGR) (human, UniProt P47871 26-477); experiment: cell-based or functional assay
# Chain of human Glucagon receptor (GCGR) (P47871 26-477): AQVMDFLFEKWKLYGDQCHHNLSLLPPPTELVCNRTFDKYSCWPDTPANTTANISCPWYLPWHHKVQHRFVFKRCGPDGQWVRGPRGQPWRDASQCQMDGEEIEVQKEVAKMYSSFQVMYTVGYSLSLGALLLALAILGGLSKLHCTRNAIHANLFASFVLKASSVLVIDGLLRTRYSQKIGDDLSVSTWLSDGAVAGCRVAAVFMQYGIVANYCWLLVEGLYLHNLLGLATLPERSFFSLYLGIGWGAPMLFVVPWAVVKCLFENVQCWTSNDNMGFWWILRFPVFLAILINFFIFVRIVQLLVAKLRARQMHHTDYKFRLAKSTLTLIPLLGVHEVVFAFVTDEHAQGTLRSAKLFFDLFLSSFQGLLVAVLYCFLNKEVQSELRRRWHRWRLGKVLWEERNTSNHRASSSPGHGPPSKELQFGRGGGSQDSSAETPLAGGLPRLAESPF
Binder,GLP1R EC50 human [1] [nM],GCGR EC50 human [2] [nM]
B1,0.18,0.13
B2,0.67,0.22
B3,0.76,1.42
H[Aib]QGTFTSD[Phe(4-CH2NH2)]([AEEA-AEEA-γGlu-C20‑OH])SKYLD[Aib]RAAQDFVQWLLATK-{γGlu-NH2} [TP582],2.57,4.95
B4,0.71,0.3
H[Aib]QGTFTSDYSKYLDARAAQDFVK([PEG2′-PEG2′-PEG2′-γGlu-C18‑OH])WL[Met(O2)]DT-NH2 [TP680],0.19,0.59
B5,0.91,0.25
B6,0.26,0.82
B7,0.45,1.08

# From patent US20200270325A1 (Merck Sharp & Dohme, published 2020)
